In patent US20250002610A1 (Genmab, published 2025):

Tests used:
[1] = target: T1, human FAPα (Fibroblast activation protein alpha), cell surface expressed (human, UniProt Q12884 1-760); experiment: flow cytometry, Expi293F cells expressing human FAPα, n = 3
T1 construct: Endogenous on human lung fibroblasts and CAFs
T1 sequence: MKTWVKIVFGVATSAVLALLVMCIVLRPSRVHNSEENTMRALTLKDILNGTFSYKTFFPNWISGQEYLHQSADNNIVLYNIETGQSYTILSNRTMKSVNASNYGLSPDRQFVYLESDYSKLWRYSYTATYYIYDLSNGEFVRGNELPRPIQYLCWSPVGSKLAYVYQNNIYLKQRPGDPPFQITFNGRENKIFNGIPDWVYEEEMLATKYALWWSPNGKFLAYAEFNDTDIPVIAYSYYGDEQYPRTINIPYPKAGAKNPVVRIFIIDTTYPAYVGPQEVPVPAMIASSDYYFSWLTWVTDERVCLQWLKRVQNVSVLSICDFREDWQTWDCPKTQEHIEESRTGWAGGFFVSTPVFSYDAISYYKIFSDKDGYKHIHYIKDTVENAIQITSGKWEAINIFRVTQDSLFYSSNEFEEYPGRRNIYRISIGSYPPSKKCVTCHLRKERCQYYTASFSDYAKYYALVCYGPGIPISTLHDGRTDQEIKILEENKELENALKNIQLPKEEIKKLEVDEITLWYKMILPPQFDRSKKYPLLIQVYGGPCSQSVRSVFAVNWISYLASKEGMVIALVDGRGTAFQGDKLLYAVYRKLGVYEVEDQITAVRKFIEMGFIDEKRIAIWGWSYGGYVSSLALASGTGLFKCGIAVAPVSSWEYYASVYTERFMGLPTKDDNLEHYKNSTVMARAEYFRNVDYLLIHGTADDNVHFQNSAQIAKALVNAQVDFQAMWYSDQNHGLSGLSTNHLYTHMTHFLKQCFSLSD
Description: (§1) Binding of BisG1-FAPα-FERL/DR4-FERR, BisG1-FAPα-FEAL/b12-FEAR and IgG1-FAPα-FERL to FAPα of species commonly used for nonclinical toxicology studies was assessed by flow cytometry using Expi293F cells transiently expressing FAPα from different animal species. IgG1-b12 was included as negative control.
(§2) Expi293F cells expressing recombinant FAPα from various species (human, cynomolgus monkey, dog, pig, rat or mouse) were seeded (20,000 cells/well) in 96-Well round bottom plates (Greiner Bio-one, Cat #650101). Antibody dilutions were prepared using FACS buffer, consisting of PBS (Capricorn Scientific, Cat #PBS-10XA, diluted to 1×PBS in distilled water)+1% BSA (Roche, Cat #10735086001)+0.02% Sodium Azide (Bio-World, Cat #41920044-3). Plates were centrifuged, supernatant was removed, and cells were resuspended in 100 μL of antibody dilutions (concentration range 30-0.00017 μg/mL with three-fold serial dilutions using FACS buffer) of BisG1-FAPα-FERL/DR4-FERR, BisG1-FAPα-FEAL/b12-FEAR, IgG1-FAPα-FERL and IgG1-b12 and incubated for 30 min at 4° C. […] After 30 min incubation at 4° C., cells were washed with FACS buffer and resuspended in FACS buffer supplemented with TO-PRO-3 Iodide viability marker (Invitrogen, Cat #T3605, diluted 1:4,000). Antibody binding to viable cells (gMFI of PE on TO-PRO-3 negative cells) was analyzed by flow cytometry on a FACS Celesta and FACS_Diva software (first two experiments) or iQue® 3 and FlowJo software (last experiment). gMFI was determined and visualized using GraphPad Prism. Binding curves were analyzed using nonlinear regression analysis. The concentration (pg/mL) at which 50% of the maximal effect was observed (EC₅₀) was derived from the fitted curves.

[2] = target: T2, cynomolgus monkey FAPα on Expi293F cells (cynomolgus monkey (Macaca fascicularis), UniProt Q12884 1-760 (human entry)); experiment: flow cytometry, Expi293F cells expressing cynomolgus monkey FAPα, n = 3
T2 sequence: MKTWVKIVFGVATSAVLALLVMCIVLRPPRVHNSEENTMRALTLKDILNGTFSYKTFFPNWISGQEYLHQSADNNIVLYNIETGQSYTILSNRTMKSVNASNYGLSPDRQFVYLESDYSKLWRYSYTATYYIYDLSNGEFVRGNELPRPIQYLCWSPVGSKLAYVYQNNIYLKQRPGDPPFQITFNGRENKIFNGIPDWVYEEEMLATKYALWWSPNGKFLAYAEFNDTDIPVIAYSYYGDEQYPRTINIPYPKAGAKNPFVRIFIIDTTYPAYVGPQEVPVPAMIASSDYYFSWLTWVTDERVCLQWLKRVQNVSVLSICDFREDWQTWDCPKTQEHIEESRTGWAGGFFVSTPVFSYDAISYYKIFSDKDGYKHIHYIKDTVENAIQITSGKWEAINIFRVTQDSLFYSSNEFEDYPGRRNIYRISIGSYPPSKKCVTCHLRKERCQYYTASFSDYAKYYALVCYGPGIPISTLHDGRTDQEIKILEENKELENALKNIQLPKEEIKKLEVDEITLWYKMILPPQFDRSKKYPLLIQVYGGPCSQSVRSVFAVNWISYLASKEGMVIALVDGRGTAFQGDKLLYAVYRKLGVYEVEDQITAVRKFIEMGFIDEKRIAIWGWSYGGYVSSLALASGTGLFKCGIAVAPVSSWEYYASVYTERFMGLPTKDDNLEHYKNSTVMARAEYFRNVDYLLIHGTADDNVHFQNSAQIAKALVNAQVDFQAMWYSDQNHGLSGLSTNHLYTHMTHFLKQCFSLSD
Description: as §1, §2

[3] = target: T3, human DR4 (Death Receptor 4), cell surface expressed on human tumor cell lines (human, UniProt O00220 24-468); experiment: flow cytometry, PANC-1 cells, n = 1
T3 construct: also called TNFRSF10A; TRAIL-R1
T3 sequence: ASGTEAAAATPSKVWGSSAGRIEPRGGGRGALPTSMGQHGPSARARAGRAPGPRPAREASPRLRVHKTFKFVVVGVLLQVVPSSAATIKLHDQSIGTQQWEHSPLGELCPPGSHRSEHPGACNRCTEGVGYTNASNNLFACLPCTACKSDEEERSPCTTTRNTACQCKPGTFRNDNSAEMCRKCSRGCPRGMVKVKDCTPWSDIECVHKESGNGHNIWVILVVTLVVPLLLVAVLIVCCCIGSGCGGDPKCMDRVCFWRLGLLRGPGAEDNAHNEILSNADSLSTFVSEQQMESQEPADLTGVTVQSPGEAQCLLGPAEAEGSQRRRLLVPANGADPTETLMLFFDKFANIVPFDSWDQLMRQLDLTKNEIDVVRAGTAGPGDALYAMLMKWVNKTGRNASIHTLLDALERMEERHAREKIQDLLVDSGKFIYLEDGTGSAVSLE

[4] = target: T1, human FAPα (Fibroblast activation …); experiment: flow cytometry, Expi293F cells expressing human FAPα, n = 2
Description: as §1, §2

EC50 [1]: 0.23 µg/mL
EC50 [2]: 0.16 µg/mL
EC50 [4]: 0.32 µg/mL
B1: BisG1-FAPα-FERL/DR4-FERR (bispecific antibody, human IgG1, kappa, lambda)
heavy 1: EVQLLESGGGLVQPGGSPRLSCEASGFTFSSYALSWVRQAPGKGLEWVSAISGSGGGRYYADSVKGRFTISRDNSKNTLFLQMNSLRAEDTAVYYCAKEGYSSSGTYWDHWGQGTLVTVSSASTKGPSVFPLAPSSKSTSGGTAALGCLVKDYFPEPVTVSWNSGALTSGVHTFPAVLQSSGLYSLSSVVTVPSSSLGTQTYICNVNHKPSNTKVDKRVEPKSCDKTHTCPPCPAPEFERGPSVFLFPPKPKDTLMISRTPEVTCVVVDVSHEDPEVKFNWYVDGVEVHNAKTKPREEQYNSTYRVVSVLTVLHQDWLNGKEYKCKVSNKALPAPIEKTISKAKGQPREPQVYTLPPSREEMTKNQVSLTCLVKGFYPSDIAVEWESNGQPENNYKTTPPVLDSDGSFLLYSKLTVDKSRWQQGNVFSCSVMHEALHNHYTQKSLSLSPG
light 1: AIQMTQSPSSVSASVGDRVTITCRASQGVSSWLAWYQQKPGRAPKLLIYVASTLQSGVPSRFSGSGSGTDFTLTINSLQPEDFATYYCQQANSFPPTFGQGTRLEMKRTVAAPSVFIFPPSDEQLKSGTASVVCLLNNFYPREAKVQWKVDNALQSGNSQESVTEQDSKDSTYSLSSTLTLSKADYEKHKVYACEVTHQGLSSPVTKSFNRGEC
heavy 2: QVQLQESGPGLVKPSGTLSLTCAVSGGSISSYSWWSWIRQPPGKGLEWIGELYHSGSTNYNPSLKSRVTISVDKSKNQFSLKLRSVTAADTAVYYCVRGVATIDYWGQGTLVTVSSASTKGPSVFPLAPSSKSTSGGTAALGCLVKDYFPEPVTVSWNSGALTSGVHTFPAVLQSSGLYSLSSVVTVPSSSLGTQTYICNVNHKPSNTKVDKRVEPKSCDKTHTCPPCPAPEFERGPSVFLFPPKPKDTLMISRTPEVTCVVVDVSHEDPEVKFNWYVDGVEVHNAKTKPREEQYNSTYRVVSVLTVLHQDWLNGKEYKCKVSNKALPAPIEKTISKAKGQPREPQVYTLPPSREEMTKNQVSLTCLVKGFYPSDIAVEWESNGQPENNYKTTPPVLDSDGSFFLYSRLTVDKSRWQQGNVFSCSVMHEALHNHYTQKSLSLSPG
light 2: QSALTQPPSASGSPGQSVTISCTGTSSDVGGYNFVSWYQQDPGKAPKLLIYEVTKRPSGVPDRFSGSKSGNTASLTVSGLQAEDEADYYCSSYAGSNNVMFGGGTKLTVLGQPKAAPSVTLFPPSSEELQANKATLVCLISDFYPGAVTVAWKADSSPVKAGVETTTPSKQSNNKYAASSYLSLTPEQWKSHRSYSCQVTHEGSTVEKTVAPTECS
notes: Human IgG1 bispecific made by controlled Fab-arm exchange of IgG1-FAPα-FERL and IgG1-DR4-FERR; monovalent for FAPα and for DR4; also called GEN1057
EC50 [3]: 1.8 µg/mL
